Assay [1] concerns the target CXCR4 mutant D171A (human) (UniProt P61073). Nature of the assay: 12G5 antibody competition binding on cells.
The target in assay [2] is CXCR4 mutant DNX4 (human) (UniProt P61073). Nature of the assay: 12G5 antibody competition binding on cells.
The target in assay [3] is CXCR4 mutant E288D (human) (UniProt P61073). Put plainly: 12G5 antibody competition binding on cells.
The target in assay [4] is CXCR4 mutant F292A (human) (UniProt P61073). Nature of the assay: 12G5 antibody competition binding on cells.
Assay [5] has as its target CXCR4 mutant F87A (human) (UniProt P61073). Put plainly: 12G5 antibody competition binding on cells.
The target of assay [6] is CXCR4 mutant W252A (human) (UniProt P61073). Nature of the assay: 12G5 antibody competition binding on cells.
Assay [7] has as its target CXCR4 mutant Y121A (human) (UniProt P61073). Nature of the assay: 12G5 antibody competition binding on cells.
In assay [8] the target is CXCR4 mutant Y255A (human) (UniProt P61073). Nature of the assay: 12G5 antibody competition binding on cells.
The target of assay [9] is CXCR4 mutant Y45A (human) (UniProt P61073). Put plainly: 12G5 antibody competition binding on cells.
Assay [10] addresses chemokine receptor CXCR4, wild type (human) (UniProt P61073). Nature of the assay: 12G5 antibody competition binding on cells.
For a further assay, the target named is CXCR4 (Homo sapiens, UniProt P61073). Nature of the assay: Intracellular calcium mobilization in Sup T1 cells. Format: cell-based. As to conditions: 50 nM, Sup T1 cells expressing CXCR4, fura-2; representative of at least three independent experiments.

Regarding DV1 dimer (peptide), the decrease of binding against wild-type CXCR4 in assay [1] was determined as 60%; in [3], 40%; in assay [4] it was 20%; in [5], 40%; in assay [6] it was 20%; in assay [7], 20%. The decrease of binding against wild-type CXCR4 in assay [8] and in assay [9] was 20% each time. The increase of % bound 12G5 against wild-type CXCR4 in assay [2] was 15%. The IC50 in [10] came to 3 nM.
In the case of stromal cell-derived factor-1α [SDF-1α], the “Mobilization of calcium (Ca2+)” value on CXCR4 is recorded as “rapid Ca^2+ mobilization”.

The values are drawn from PMC3476724 (Biochemistry, 2012).
